Experimental findings from patent US20050084840A1, “Method for screening drug for improving insulin resistance” (priority 2002, published 2005) are described below.

The target of this experiment is GAL-PPARγ: chimera protein of the DNA binding region (1-147 amino acids) of yeast Gal4 with the ligand binding region of human PPARγ2 fused to its C terminus, expressed in COS-1 cells (yeast; human) (UniProt P04386). The experiment can be described thus: cell-based or functional assay.

B1: full-length AOP2 with vector-derived V5 epitope and HIS6 tag at the C terminus, expressed from pcDNA-AOP2 in COS-1 cells (protein, not shown: small tags and cut ends)
chain: PGGLLLGDVAPNFEANTTVGRIRFHDFLGDSWGILFSHPRDFTPVCTTELGRAAKLAPEFAKRNVKLIALSIDSVEDHLAWSKDINAYNCEEPTEKLPFPIIDDRNRELAILLGMLDPAEKDEKGMPVTARVVFVFGPDKKLKLSILYPATTGRNFDEILRVVISLQLTAEKRVATPVDWKDGDSVMVLPTIPEEEAKKLFPKGVFTKELPSGKKYLRYTPQP
Regarding B1, the promotion of the transcription induction ability of PPARγ in the presence of AOP2 (corrected luciferase activity, COS-1), GI-262570 at 1.0 µM and 10 µM was determined as 3.5 fold; the promotion of the transcription induction ability of PPARγ in the presence of AOP2 (corrected luciferase activity, COS-1), GL-100085 at 1.0 to 10 µM fell in the range of 4 to 6 fold; the promotion of the transcription induction ability of PPARγ in the presence of AOP2 (corrected luciferase activity, COS-1), GW7282 at 1.0 to 10 µM is 4 to 5 fold.
